Assay results taken from publication PMC5873253.

Biological target: OsMADS57 (Oryza sativa) (UniProt Q6Z6W2)
Experiment: SPR
Settings: SPR (Biacore 3000, SA chip): 10 mM Hepes pH 7.9, 50 mM KCl, 1 mM EDTA, 0.5 mM DTT, 5 mM MgCl2, 10% glycerol, 0.005% P20, 25 or 4 C, protein 0.15-4.80 uM, EMSA: …

Chain of OsMADS57 (Oryza sativa) (Q6Z6W2 whole entry): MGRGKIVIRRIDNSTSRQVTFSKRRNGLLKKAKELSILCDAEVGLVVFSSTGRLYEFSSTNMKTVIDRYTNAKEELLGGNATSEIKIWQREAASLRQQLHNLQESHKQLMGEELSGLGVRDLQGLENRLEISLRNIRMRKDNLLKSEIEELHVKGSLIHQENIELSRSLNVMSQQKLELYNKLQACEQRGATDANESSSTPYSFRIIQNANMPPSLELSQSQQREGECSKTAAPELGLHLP

TTAACTTTAAAAAGTTAGTTAACTTTAAAAAGTTAGTTAACTTTAAAAAGTTAG (double strand) [WRKY94S2]
Kd (25 C): 1200 nM
Kd: 700 nM
